Laboratory results taken from patent US8691189B2, “Method of colorectal cancer detection by using radiolabeled anti-GRP78 peptide” (Institute of Nuclear Energy Research, Atomic Energy Council, priority 2011, dated 2014).
Where no end group is shown, it is not given here.

Target: T1, GRP78 (Mus musculus, UniProt P20029)
T1 construct: endogenous in cells; CT26 named for the mouse model
Assay: Immunofluorescence cell staining of colorectal cancer cells
Assay type: cell-based
Conditions: FITC-labeled, 1:50, 4° C. overnight, FIG. 3
Protocol: (A) Immunofluorescence cell staining 4: • (A1) Cell culturing 40: • I. A few colorectal cancer cells are cultured in a RPMI1640 of 10% fetal bovine serum (FBS) (containing 2 mM glutamine, penicillin (100 U/ml) and streptomycin ([…])). • II. The cells are put in a culture chamber having 5% CO2 at 37° C. • III. After being fully grown, the cells adhered on culture dishes are reacted with 0.05% Trypsin and are washed down. • IV. The cells washed down are further washed with a Hank's balanced salts solution. • V. The washed cells are obtained at a number about 1×10^4 to be put into a chamber slide having eight individual sections for further culturing. • VI. […] The sliced tissues are washed with a normal saline solution for 3 times each time for 5 minutes. • (A4) Fluorescence microscopy observation 43: • I. The sliced tissues are fully dried for observation with a microscope. • II. […] A fluorescence image is captured with a digital camera device. • IV. An image of the cells is captured under a visible light as a reference to the fluorescence image.
(A) Fluorescence immunoassay 7: • (A1) Fluorescence immunoassay of colorectal cancer 71: • As modern studies show, colorectal cancer cells and tissues show a lot of GRP78. […] As a result, the anti-GRP78 peptide is able to detect expression of GRP78 in colorectal cancer cell. • (A2) Fluorescence immunoassay of colorectal cancer tissue 72: […]

T1 sequence (P20029 20-655): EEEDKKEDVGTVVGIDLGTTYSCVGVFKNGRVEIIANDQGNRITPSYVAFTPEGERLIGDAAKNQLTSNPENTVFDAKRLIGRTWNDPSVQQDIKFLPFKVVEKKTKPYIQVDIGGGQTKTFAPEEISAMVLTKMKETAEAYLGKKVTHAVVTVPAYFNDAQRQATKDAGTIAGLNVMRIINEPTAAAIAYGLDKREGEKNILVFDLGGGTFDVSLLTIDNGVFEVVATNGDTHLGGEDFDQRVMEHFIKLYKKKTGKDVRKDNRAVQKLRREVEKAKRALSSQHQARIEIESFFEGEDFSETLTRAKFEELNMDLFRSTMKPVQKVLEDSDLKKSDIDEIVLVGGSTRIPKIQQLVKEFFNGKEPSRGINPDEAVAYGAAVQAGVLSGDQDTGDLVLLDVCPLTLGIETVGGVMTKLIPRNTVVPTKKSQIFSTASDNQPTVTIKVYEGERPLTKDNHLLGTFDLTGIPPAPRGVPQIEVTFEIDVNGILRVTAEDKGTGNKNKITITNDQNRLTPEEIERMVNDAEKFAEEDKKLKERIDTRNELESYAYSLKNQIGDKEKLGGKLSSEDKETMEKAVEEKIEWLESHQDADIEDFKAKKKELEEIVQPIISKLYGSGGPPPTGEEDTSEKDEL

Substance	fluorescence expression (detection of GRP78 expression in colorectal cancer cell)
YIFPYIELC [anti-GRP78 peptide]	obvious fluorescence expression
fluorescein isothiocyanate [pure FITC]	no fluorescence expression
